Assay [1] addresses T1, PD-L2 expressed on transfected CHO cells (Homo sapiens (Human), UniProt Q9BQ51 20-273).
T1 construct: also called PD-L2 of PD-1 ligand family
T1 sequence: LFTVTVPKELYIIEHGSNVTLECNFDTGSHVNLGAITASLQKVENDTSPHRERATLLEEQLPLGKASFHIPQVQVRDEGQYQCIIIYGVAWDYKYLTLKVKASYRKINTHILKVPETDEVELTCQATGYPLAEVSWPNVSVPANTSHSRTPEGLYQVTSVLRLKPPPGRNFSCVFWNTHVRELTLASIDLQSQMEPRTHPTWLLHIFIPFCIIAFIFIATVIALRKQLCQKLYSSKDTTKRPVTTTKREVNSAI
The assay is described as follows: FACS on PD-L2 transfected CHO-K1 cells, single bar, antibody concentration not shown. The method, then: 3.8 Cross-family binding assay by FACS: to examine the cross-family binding activity of the fully human antibodies, cells lines that express PD-L2 were stained with the fully human antibodies, followed by 2nd antibody staining with FITC conjugated goat anti-human IgG Fc. PD-L1 expressing cells were used as positive control. Corresponding parental cell lines were used as negative controls. The stained cells were analyzed by using a BD Biosciences FACSCanto II and FlowJo Version software.
CHO cells transfected with PD-L1 or PD-L2 were stained with fully human PD-L1 antibodies and analysis by FACS.

The target in another assay is T2, recombinant human PD-L1 (human, UniProt Q9NZQ7 19-238, limits assumed).
T2 construct: Used for the SPR analyte (3.2) and for the plate-coated human PD-L1 of the cross-species ELISA (3.7); also called human PD-L1 (SPR analyte); Human PD-L1 coated on ELISA plates
T2 sequence (Q9NZQ7 19-238 limits assumed): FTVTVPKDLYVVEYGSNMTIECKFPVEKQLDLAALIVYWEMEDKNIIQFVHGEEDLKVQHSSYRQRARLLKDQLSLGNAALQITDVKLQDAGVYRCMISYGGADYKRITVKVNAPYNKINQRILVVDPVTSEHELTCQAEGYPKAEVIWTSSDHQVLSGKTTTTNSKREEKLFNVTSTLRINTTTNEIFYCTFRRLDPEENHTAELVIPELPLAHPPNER
The assay is described as follows: surface plasmon resonance per legend paragraph 39 and paragraph 188; column Best fit-KD, mol/L from the legend. The text has this:
3.2 Affinity test by surface plasmon resonance (SPR): Antibodies were characterized for affinity and binding kinetics to PD-L1 by SPR assay using ProteOn XPR36 (Bio-Rad). Protein A protein (Sigma) was immobilized to a GLM sensor chip (Bio-Rad) through amine coupling. Purified antibodies were flowed over the sensor chip and captured by the Protein A. The chip was rotated […] and washed with running buffer (1×PBS/0.01% Tween20, Bio-Rad) until the baseline is stable. Five concentrations of human PD-L1 and running buffer were flowed against the antibody flow cell at a flow rate 100 μL/min for an association phase of 240s, followed by 600s dissociation. The chip was regenerated with pH 1.7 H₃PO₄ after each run. The association and dissociation curve was fit to a 1:1 Langmiur binding model using ProteOn software.
(SPR reads the build-up and loss of mass on a sensor chip optically.)

The target in a further assay is T3, murine PD-L1 (mouse, UniProt Q9EP73 19-238, limits assumed).
T3 construct: also called mouse PD-L1 (coated on ELISA plates)
T3 sequence (Q9EP73 19-238 limits assumed): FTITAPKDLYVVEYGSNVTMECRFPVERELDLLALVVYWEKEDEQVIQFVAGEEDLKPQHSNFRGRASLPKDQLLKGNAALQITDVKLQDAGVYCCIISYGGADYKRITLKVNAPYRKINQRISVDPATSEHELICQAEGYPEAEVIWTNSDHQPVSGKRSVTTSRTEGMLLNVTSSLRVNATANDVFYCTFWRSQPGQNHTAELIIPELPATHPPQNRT
The assay is described as follows: ELISA, murine PD-L1 coated on the plate, goat anti-human IgG Fc-HRP; antibody concentration not shown. The method, then: 3.7 Cross-species binding assay: the cross-reactivity of the Ab to cynomolgus and murine PD-L1 was measured by ELISA. Human, cyno and mouse PD-L1 were coated on ELISA plates, respectively. After blocking, fully human antibodies were added into the plate and incubated at room temperature for at least 2 hours. The binding of the antibodies to the coated antigens was detected by using goat anti-human IgG Fc-HRP. The color reaction was developed using TMB substrate and stopped by 2M HCl. The ELISA plates were analyzed at 450 nm using a Molecular Device M5e microplate reader.
Background: In an ELISA, binding on a coated surface is turned into a signal by an enzyme label.

In assay [2] the target is T4, full-length human PD-L1 expressed on CHO cells (human, UniProt Q9NZQ7 19-290).
T4 construct: whole, on cells; also called CHO-K1 cells expressing human PD-L1; PD-L1 transfected CHO cells
T4 sequence (Q9NZQ7 19-290): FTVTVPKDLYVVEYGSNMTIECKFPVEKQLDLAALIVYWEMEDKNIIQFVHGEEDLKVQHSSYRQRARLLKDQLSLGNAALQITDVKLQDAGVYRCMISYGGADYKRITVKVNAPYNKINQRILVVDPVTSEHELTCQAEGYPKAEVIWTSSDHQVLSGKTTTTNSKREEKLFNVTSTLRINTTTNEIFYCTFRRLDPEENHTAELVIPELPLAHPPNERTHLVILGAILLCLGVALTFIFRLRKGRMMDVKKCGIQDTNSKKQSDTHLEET
The assay is described as follows: FACS competition on CHO cells expressing human PD-L1; competitor mouse Fc-tagged human PD-1. On the procedure:
(§1) 3.1 Competition assay by FACS: to examine whether the fully human antibodies can block the binding of PD-L1 to PD-1, the CHO-K1 cells expressing human PD-L1 were incubated with various concentrations of the fully human antibodies at 4° C. for 1 hour. The unbound antibodies were washed away, and then the mouse Fc-tagged human PD-1 was added to the cells. The binding of human PD-1 to PD-L1 expressing cell was detected by using FITC-conjugated goat anti-mouse IgG, followed by the analysis using a BD Biosciences FACSCanto II and FlowJo Version software.
(§2) Then the mouse Fc-tagged human PD-1 was added to the cells. The binding of human PD-1 to PD-L1 expressing cell was detected by using FITC-conjugated goat anti-mouse IgG, followed by the FACS analysis.

In assay [3] the target is T4, full-length human PD-L1 expressed on …. The assay is described as follows: FACS competition: blocking of mouse Fc-tagged human PD-1 binding to CHO cells expressing human PD-L1. The method, then:
as §1, §2

For assay [4] the target is unchanged. The assay is described as follows: FACS on CHO cells transfected with full-length human PD-L1.

B1: 1.4.1 (antibody, V domains shown)
VH: QLQLQESGPGLVKPSESLSLTCTVSGGSISIRTYYWGWIRQPPGTGLEWMGYIYYSGSTRYNPSLKSRVTISVDTSKNQFSLKLSSVTAADTAVYYCARLSYFFDYWGQGTLVTVSS
VL: SYELTQPPSVSVSPGQTASITCSGDKLGDKYACWYQQKPGQSPVMVIYQDTKRPSGIPERFSGSNSGNTATLTISGTLAMDEADYYCQAWDSGTVIFGGGTKLTVL
notes: Fully human monoclonal antibody with a human constant region of IgG4 isotype; also called fully human PD-L1 antibody 1.4.1; 1.4.1-VH(30511)
What is called Kd is the free concentration of one partner at which half of the binding sites on the other are occupied at equilibrium, for simple one-to-one binding. As to B1, the binding result in assay [1] is recorded as “no binding”. In the assay with recombinant human PD-L1, the Kd came out at 0.478 nM.

B2: 1.46.11 (antibody, V domains shown)
VH: EVQLLESGGGLVQPGGSLRLSCAASGFTFSSYAMSWVRQAPGKGLEWVSGFSGSGFITYYADSVKGRFTISRDNSKNTLYLQMNSLRAEDTAVYYCAMPPRGYNYGPFDYWGQGTLVTVSS
VL: SYVLTQPPSVSVAPGQTARITCGGNNIGSKSVHWYQQKPGQAPVLVVYDDSDRPSGIPERFSGSNSGNTATLTISRVEAGDEADYYCQVWDSSSDHVVFGGGTKLTVL
notes: Fully human monoclonal antibody with a human constant region of IgG4 isotype
On to B2, for which the binding result (in assay [1]; with murine PD-L1) was “no binding” throughout.

B3: 1.20.15 (antibody, V domains shown)
VH: QLQLQESGPGLVKPSETLSLTCTVSGGSISSISNYWGWIRQPPGKGLEWIGSIYYSGSTNYNPPLKSRVTISVDTTKNQFSLKLSSVTAADTAVYYCARLTYYFDYWGQGMLVTVSS
VL: SYDLTQPPSVSVSPGQTASITCSGDKLGDKYACWYQQKPGQSPLLVIQQDSKRPSGIPARFSGSNSGNTATLTISGTQAMDEADYFCQTWDSSTVVFGGGTKLTVL
notes: Fully human monoclonal antibody with a human constant region of IgG4 isotype; also called fully human PD-L1 antibody 1.20.15; 1.20.15-VH(30712)
What is called IC50 is the point on the concentration scale where inhibition reaches its midpoint. Low values mean inhibition by little substance, high ones a need for much substance. The EC50 (read off the curve) is the midpoint of the concentration-response curve. Read a low EC50 (read off the curve) as an effect from little substance. Take B3: the binding result (in assay [1]; with murine PD-L1) was “no binding” throughout. The IC50 in assay [2] was approximately 10 nM. The “IC50 (read off the curve)” value in assay [3] is approximately 2 nM. In assay [4], the “EC50 (read off the curve)” value is approximately 1 nM. In the assay with recombinant human PD-L1, the Kd was 0.226 nM.

These data come from patent US20250313634A1 (WUXI BIOLOGICS SHANGHAI, published 2025).
